According to patent US20130095097A1 (EMERGENT PRODUCT DEVELOPMENT SEATTLE, published 2013):
Values belong to the binder of their own block, whether it stands above or below them.

Columns and labels:
CD28 mIg [1] = molecular target: T1, CD28 mIg (UniProt P10747 19-152); test: SPR, CD28-mIgG immobilized, 1:1 Langmuir model, ka (I)
Experimental: (§1) Surface plasmon resonance (SPR) measurements were performed on a Biacore T100 SPR using HBS-P+ (GE Healthcare) as a running buffer. CD28-mIgG (25 μg/mL in 10 mM sodium acetate, pH 4.0) was directly immobilized onto a CM5 chip using standard amine coupling chemistry (Biacore Amine Coupling Kit, GE Healthcare), with final immobilization levels between 800 and 1900 Ru (resonance units). 2E12 binding domain constructs were injected at 25° C. or 37° C. for 150 seconds at a flow rate of 30 μl/min in a series of concentrations from 10 nM to 1 μM. Dissociation was monitored for 1200 seconds, and the surface was regenerated by injecting 50 mM NaOH for 60 seconds. Binding interactions with the surface were stable through at least 60 regeneration cycles. Data were analyzed using BiaEvaluation for the T100 software (version 2.0, GE Healthcare).
(§2) Surface plasmon resonance was used to measure binding of immobilized CD28 by 2E12 binding domain constructs. […] Binding kinetics of the bivalent 2E12 constructs (e.g., 2E12 mAb, FIGS. 27A-27B) to immobilized CD28 could not be fit to a 1:1 Langmuir binding model, but could be fit with high accuracy to a bivalent analyte binding model (Table 5). Equilibrium dissociation constants (1(D) could be calculated with high accuracy for each construct by fitting the observed response at saturation to a steady-state equilibrium model (Table 5).

CD28 mIg [2] = molecular target: T1, CD28 mIg; test: SPR, CD28-mIgG immobilized, kinetic KD (kd (I)/ka (I))
Experimental: as §1, §2

CD28 mIg [3] = molecular target: T1, CD28 mIg; test: SPR, CD28-mIgG immobilized, steady-state equilibrium KD
Experimental: as §1, §2

CD28 mIg [4] = molecular target: T1, CD28 mIg; test: SPR, CD28-mIgG immobilized, 1:1 Langmuir model, kd (I)
Experimental: as §1, §2

CD28 mIg [5] = molecular target: T2, CD28 mIg (UniProt P10747 19-152); test: SPR, CD28-mIgG immobilized; reference 2E12 SMIP (M0039)
T2 construct: Coated on ELISA plates and amine-coupled to a CM5 chip; also called CD28-mIgG; immobilized CD28
Experimental: as §1, §2

CD28 mIg [6] = molecular target: T2, CD28 mIg; test: SPR, CD28-mIgG immobilized, kinetic KD, bivalent analyte model, initial binding at the first site only
Experimental: as §1, §2

CD28 mIg [7] = molecular target: T2, CD28 mIg; test: SPR, CD28-mIgG immobilized, bivalent analyte model, second on rate (avidity); parameters: unit not given here
Experimental: as §1, §2

CD28 mIg [8] = molecular target: T2, CD28 mIg; test: SPR, CD28-mIgG immobilized, bivalent analyte model, first off rate kd (I)
Experimental: as §1, §2

CD28 mIg [9] = molecular target: T2, CD28 mIg; test: SPR, CD28-mIgG immobilized, steady-state equilibrium KD
Experimental: as §1, §2

CD28 mIg [10] = molecular target: T2, CD28 mIg; test: SPR, CD28-mIgG immobilized, bivalent analyte model, second off rate (avidity)
Experimental: as §1, §2

CD28 mIg [11] = molecular target: T2, CD28 mIg; test: SPR, CD28-mIgG immobilized, bivalent analyte model, first on rate ka (I)
Experimental: as §1, §2

CD28 on Jurkat T cells = molecular target: T3, CD28 on Jurkat T cells (UniProt P10747 19-220, limits assumed); test: flow cytometry on Jurkat cells
T3 construct: whole, on cells; also called Jurkat cells; Jurkat T cell lines

kon (CD28 mIg [1]): 141000 M⁻¹ s⁻¹
Kd (CD28 mIg [2]): 35.2 nM
Kd (CD28 mIg [3]): 104 nM
koff (CD28 mIg [4]): 0.00497 s⁻¹
B1: Interceptor X0124 (X0112 + X0113) (other)
chain 1: QVQLKESGPGSVAPSQSLSITCTVSGFSLTGYGVNWVRQPPGKGLEWLGMIWGDGSTDYNSALKSRLSITKDNSKSQVFLKMNSLQTDDTARYYCARDGYSNFHYYVMDYWGQGTSVTVSSGGGGSGGGGSGGGGSGGGGSDIVLTQSPASLAVSLGQRATISCRASESVEYYVTSLMQWYQQKPGQPPKLLISAASNVESGVPARFSGSGSGTDFSLNIHPVEEDDIAMYFCQQSRKVPWTFGGGTKLEIKSSSASTKGPSVFPLAPSSKSTSGGTAALGCLVKDYFPEPVTVSWNSGALTSGVHTFPAVLQSSGLYSLSSVVTVPSSSLGTQTYICNVNHKPSNTKVDKKVRTEPKSSDKTHTCPPCPSGAPELLGGPSVFLFPPKPKDTLMISRTPEVTCVVVDVSHEDPEVKFNWYVDGVEVHNAKTKPREEQYNSTYRVVSVLTVLHQDWLNGKEYKCKVSNKALPAPIEKTISKAKGQPREPQVYTLPPSRDELTKNQVSLTCLVKGFYPSDIAVEWESNGQPENNYKTTPPVLDSDGSFFLYSKLTVDKSRWQQGNVFSCSVMHEALHNHYTQKSLSLSPGK
chain 2: TVAAPSVFIFPPSDEQLKSGTASVVCLLNNFYPREAKVQWKVDNALQSGNSQESVTEQDSKDSTYSLSSTLTLSKADYEKHKVYACEVTHQGLSSPVTKSFNRGERTEPKSSDKTHTCPPCPSGAPELLGGPSVFLFPPKPKDTLMISRTPEVTCVVVDVSHEDPEVKFNWYVDGVEVHNAKTKPREEQYNSTYRVVSVLTVLHQDWLNGKEYKCKVSNKALPAPIEKTISKAKGQPREPQVYTLPPSRDELTKNQVSLTCLVKGFYPSDIAVEWESNGQPENNYKTTPPVLDSDGSFFLYSKLTVDKSRWQQGNVFSCSVMHEALHNHYTQKSLSLSPGK
notes: Monovalent anti-CD28 polypeptide heterodimer; After protein A alone the preparation also holds X0113 homodimer; also called Heterodimer 1 (X0124); X00124

fold affinity difference against the 2E12 SMIP (CD28 mIg [5]): 2 fold
Kd (CD28 mIg [6]): 6 nM
ka (II) (CD28 mIg [7]): 0.00367
koff (CD28 mIg [8]): 0.00104 s⁻¹
Kd (CD28 mIg [9]): 11.4 nM
kd (II) (CD28 mIg [10]): 0.0127 s⁻¹
kon (CD28 mIg [11]): 176000 M⁻¹ s⁻¹
B2: 2E12 monoclonal antibody (mAb) (antibody, V domains shown)
VH: QVQLKESGPGSVAPSQSLSITCTVSGFSLTGYGVNWVRQPPGKGLEWLGMIWGDGSTDYNSALKSRLSITKDNSKSQVFLKMNSLQTDDTARYYCARDGYSNFHYYVMDYWGQGTSVTVSS
VL: DIVLTQSPASLAVSLGQRATISCRASESVEYYVTSLMQWYQQKPGQPPKLLISAASNVESGVPARFSGSGSGTDFSLNIHPVEEDDIAMYFCQQSRKVPWTFGGGTKLEIK
notes: also called 2E12 mAb; 2E12 Mab

kon (CD28 mIg [1]): 348000 M⁻¹ s⁻¹
Kd (CD28 mIg [2]): 9.69 nM
Kd (CD28 mIg [3]): 39.6 nM
koff (CD28 mIg [4]): 0.00338 s⁻¹
B3: 2E12 single-chain variable fragment (scFv) (scFv)
scFv: QVQLKESGPGSVAPSQSLSITCTVSGFSLTGYGVNWVRQPPGKGLEWLGMIWGDGSTDYNSALKSRLSITKDNSKSQVFLKMNSLQTDDTARYYCARDGYSNFHYYVMDYWGQGTSVTVSSGGGGSGGGGSGGGGSGGGGSDIVLTQSPASLAVSLGQRATISCRASESVEYYVTSLMQWYQQKPGQPPKLLISAASNVESGVPARFSGSGSGTDFSLNIHPVEEDDIAMYFCQQSRKVPWTFGGGTKLEIK
notes: Any tag on the free scFv used in SPR is not described; also called 2E12 scFv

binding result (CD28 on Jurkat T cells): binds
kon (CD28 mIg [1]): 149000 M⁻¹ s⁻¹
Kd (CD28 mIg [2]): 43.7 nM
Kd (CD28 mIg [3]): 134 nM
koff (CD28 mIg [4]): 0.0065 s⁻¹
B4: Interceptor X0132 (X0130 + X0131) (other)
chain 1: QVQLKESGPGSVAPSQSLSITCTVSGFSLTGYGVNWVRQPPGKGLEWLGMIWGDGSTDYNSALKSRLSITKDNSKSQVFLKMNSLQTDDTARYYCARDGYSNFHYYVMDYWGQGTSVTVSSGGGGSGGGGSGGGGSGGGGSDIVLTQSPASLAVSLGQRATISCRASESVEYYVTSLMQWYQQKPGQPPKLLISAASNVESGVPARFSGSGSGTDFSLNIHPVEEDDIAMYFCQQSRKVPWTFGGGTKLEIKSSSASTKGPSVFPLAPSSKSTSGGTAALGCLVKDYFPEPVTVSWNSGALTSGVHTFPAVLQSSGLYSLSSVVTVPSSSLGTQTYICNVNHKPSNTKVDKKVRTEPKSSDKTHTCPPCPSGAPELLGGPSVFLFPPKPKDTLMISRTPEVTCVVVDVSHEDPEVKFNWYVDGVEVHNAKTKPREEQYNSTYRVVSVLTVLHQDWLNGKEYKCKVSNKALPAPIEKTISKAKGQPREPQVYTLPPSRDELTKNQVSLTCLVKGFYPSDIAVEWESNGQPENNYKTTPPVLDSDGSFFLYSKLTVDKSRWQQGNVFSCSVMHEALHNHYTQKSLSLSPGKSRTVAAPSVFIFPPSDEQLKSGTASVVCLLNNFYPREAKVQWKVDNALQSGNSQESVTEQDSKDSTYSLSSTLTLSKADYEKHKVYACEVTHQGLSSPVTKSFNRGE
chain 2: TVAAPSVFIFPPSDEQLKSGTASVVCLLNNFYPREAKVQWKVDNALQSGNSQESVTEQDSKDSTYSLSSTLTLSKADYEKHKVYACEVTHQGLSSPVTKSFNRGERTEPKSSDKTHTCPPCPSGAPELLGGPSVFLFPPKPKDTLMISRTPEVTCVVVDVSHEDPEVKFNWYVDGVEVHNAKTKPREEQYNSTYRVVSVLTVLHQDWLNGKEYKCKVSNKALPAPIEKTISKAKGQPREPQVYTLPPSRDELTKNQVSLTCLVKGFYPSDIAVEWESNGQPENNYKTTPPVLDSDGSFFLYSKLTVDKSRWQQGNVFSCSVMHEALHNHYTQKSLSLSPGKSRASTKGPSVFPLAPSSKSTSGGTAALGCLVKDYFPEPVTVSWNSGALTSGVHTFPAVLQSSGLYSLSSVVTVPSSSLGTQTYICNVNHKPSNTKVDKKV
notes: also called Heterodimer 2 (X0132)

binding result (CD28 on Jurkat T cells): binds
B5: Interceptor X0128 (X0120 + X0121) (other)
chain 1: QVQLKESGPGSVAPSQSLSITCTVSGFSLTGYGVNWVRQPPGKGLEWLGMIWGDGSTDYNSALKSRLSITKDNSKSQVFLKMNSLQTDDTARYYCARDGYSNFHYYVMDYWGQGTSVTVSSGGGGSGGGGSGGGGSGGGGSDIVLTQSPASLAVSLGQRATISCRASESVEYYVTSLMQWYQQKPGQPPKLLISAASNVESGVPARFSGSGSGTDFSLNIHPVEEDDIAMYFCQQSRKVPWTFGGGTKLEIKSSSASTKGPSVFPLAPSSKSTSGGTAALGCLVKDYFPEPVTVSWNSGALTSGVHTFPAVLQSSGLYSLSSVVTVPSSSLGTQTYICNVNHKPSNTKVDKKVRTEPKSSDKTHTCPPCPSGAPELLGGPSVFLFPPKPKDTLMISRTPEVTCVVVDVSHEDPEVKFNWYVDGVEVHNAKTKPREEQYNSTYRVVSVLTVLHQDWLNGKEYKCKVSNKALPAPIEKTISKAKGQPREPQVYTLPPSRDELTKNQVSLTCLVKGFYPSDIAVEWESNGQPENNYKTTPPVLDSDGSFFLYSKLTVDKSRWQQGNVFSCSVMHEALHNHYTQKSLSLSPGKSRASTKGPSVFPLAPSSKSTSGGTAALGCLVKDYFPEPVTVSWNSGALTSGVHTFPAVLQSSGLYSLSSVVTVPSSSLGTQTYICNVNHKPSNTKVDKKV
chain 2: TVAAPSVFIFPPSDEQLKSGTASVVCLLNNFYPREAKVQWKVDNALQSGNSQESVTEQDSKDSTYSLSSTLTLSKADYEKHKVYACEVTHQGLSSPVTKSFNRGERTEPKSSDKTHTCPPCPSGAPELLGGPSVFLFPPKPKDTLMISRTPEVTCVVVDVSHEDPEVKFNWYVDGVEVHNAKTKPREEQYNSTYRVVSVLTVLHQDWLNGKEYKCKVSNKALPAPIEKTISKAKGQPREPQVYTLPPSRDELTKNQVSLTCLVKGFYPSDIAVEWESNGQPENNYKTTPPVLDSDGSFFLYSKLTVDKSRWQQGNVFSCSVMHEALHNHYTQKSLSLSPGKSRTVAAPSVFIFPPSDEQLKSGTASVVCLLNNFYPREAKVQWKVDNALQSGNSQESVTEQDSKDSTYSLSSTLTLSKADYEKHKVYACEVTHQGLSSPVTKSFNRGE
